This is an account of results in patent US20100183640A1.

The target in this test is purified human fibronectin (hFn), from human plasma (human) (UniProt P02751). The experiment in a line: cell-based or functional assay.

B1: recombinant human uteroglobin (ligand)
chain: EICPSFQRVIETLLMDTPSSYEAAMELFSPDQDMREAGAQLKKLVDTLPQKPRESIIKLMEKIAQSSLCN
B1: the % Inhibition of adhesion of NIH-3T3 cells to hFn-coated wells (50 ng rhUG) amounted to 54%; the Percent Inhibition of cellular adhesion to fibronectin, Hela cell line (50 ng) was -5%; the Percent Inhibition of cellular adhesion to fibronectin, NIH-3T3 cell line (50 ng) came to 54%.
